According to publication PMC13544220, “Glycemic and bodyweight effects of GIPR coding variation reflect differences in surface expression and intrinsic functional impairment” (Science Advances, 2026):

Tests used:
Format in all cases: cell-based, human
[1] = test system: wild-type and variant SNAP-GIPR; experiment: Surface SNAP-GIPR expression (SNAP-tag labelling) in AD293 cells; settings: for AD293 Surface: Fig S3E, mean; for Surface SNAP-GIPR expression: sheet Fig 1C;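 for all read-outs here: scaled to the experimental average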
How it was run: (§1)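 Surface GIPR is quantified from wide-field images after labelling intact transfected cells with a membrane-impermeant SNAP probe at 500 nM for 10 min at room temperature. Specific signal, corrected for nontransfected cells, is normalized to the experiment-wide average or to wild-type.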

[2] = test system: wild-type and variant SNAP-GIPR; experiment: Surface SNAP-GIPR expression (SNAP-tag labelling) in INS-1 cells; settings: Fig 4G; Mean
How it was run: as §1

[3] = test system: wild-type and variant SNAP-GIPR; experiment: Single-concentration GIP cAMP response by HTRF in AD293 cells; settings: Fig S3F, HTRF, mean;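 note: ratio to experiment-wide average response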
Procedure: (§2) All variants were tested in parallel on each occasion to control for transfection efficiency differences between experiments.

[4] = test system: wild-type and variant SNAP-GIPR; experiment: Single-concentration GIP cAMP response by HTRF in INS-1 cells; settings: Fig S3E, mean
Procedure: as §2

[5] = test system: wild-type and variant SNAP-GIPR; experiment: cADDis cAMP imaging in AD293 cells, ensemble, expression-matched and per decile; settings: Fig S3F, cADDis, mean
How it was run: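 Per-cell cAMP from cADDis intensity over time, with cells excluded by IBMX/FSK response criteria. Expression matching used wild-type surface-SNAP deciles, top and bottom trimmed, mean of decile means. Ensemble values ignore deciles. Wide-field imaging at 37 °C in KRBH with 6 mM glucose, 0.1% BSA, 24 h post-transfection in AD293.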

[6] = test system: wild-type and variant SNAP-GIPR; experiment: Constitutive and agonist-mediated internalization, reversible SNAP-tag labelling, AD293 cells; set-up: key to Internalisation, Vehicle / Internalisation, +GIP / Internalisation, GIP-only: % internalization: residual fluorescence after Mesna vs pre-Mesna; Surface expression: unit not given here; settings: Mean
How it was run: (§3)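 Surface SNAP-GIPR signal removable by Mesna was tracked by imaging before and 10 min after treatment in pH 8.6 TNE buffer. Internalization is the Mesna-resistant share of specific fluorescence.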

[7] = test system: wild-type and variant SNAP-GIPR; experiment: Constitutive and agonist-mediated internalization, reversible SNAP-tag labelling, INS-1 cells; set-up: key to Internalisation, GIP-only / Internalisation, Vehicle / Internalisation, +GIP: % internalization: residual fluorescence after Mesna vs pre-Mesna; settings: Mean
How it was run: as §3

B1: R217L (protein, UniProt P48546 22-466, looked up, variant R217L)
Gastric inhibitory …: RAETGSKGQTAGELYQRWERYRRECQETLAAAEPPSGLACNGSFDMYVCWDYAAPNATARASCPWYLPWHHHVAAGFVLRQCGSDGQWGLWRDHTQCENPEKNEAFLDQRLILERLQVMYTVGYSLSLATLLLALLILSLFRRLHCTRNYIHINLFTSFMLRAAAILSRDRLLPRPGPYLGDQALALWNQALAACLTAQIVTQYCVGANYTWLLVEGVYLHSLLVLVGGSEEGHFRYYLLLGWGAPALFVIPWVIVRYLYENTQCWERNEVKAIWWIIRTPILMTILINFLIFIRILGILLSKLRTRQMRCRDYRLRLARSTLTLVPLLGVHEVVFAPVTEEQARGALRFAKLGFEIFLSSFQGFLVSVLYCFINKEVQSEIRRGWHHCRLRRSLGEEQRQLPERAFRALPSGSGPGEVPTSRGLSSGTLPGPGNEASRELESYC
AD293 Surface ([1]; column repeated, paired with cAMP 100 nM): 0.4259 | AD293 Surface ([1]; paired with cAMP 100 pM): 0.4259 | Surface SNAP-GIPR expression ([1]; replicate 1): 0.4201 | Surface SNAP-GIPR expression ([1]; replicate 2): 0.7236 | Surface SNAP-GIPR expression ([1]; replicate 3): 0.824 | Surface SNAP-GIPR expression ([1]; replicate 4): 0.3234 | Surface SNAP-GIPR expression ([1]; replicate 5): 0.3781 | Surface SNAP-GIPR expression ([1]; replicate 6): 0.5304 | Surface SNAP-GIPR expression ([1]; replicate 7): 0.6162 | Surface SNAP-GIPR expression ([1]; replicate 8): 0.6634 | Surface SNAP-GIPR expression ([1]; replicate 9): 0.3807 | Surface SNAP-GIPR expression ([1]; replicate 10): 0.4129 | Surface SNAP-GIPR expression ([1]; replicate 11): 0.358 | Surface SNAP-GIPR expression ([1]; replicate 12): 0.3678 | Surface SNAP-GIPR expression ([1]; replicate 13): 0.04028 | Surface SNAP-GIPR expression ([1]; replicate 14): 0.3517 | Surface SNAP-GIPR expression ([1]; replicate 15): 0.3652 | Surface SNAP-GIPR expression ([1]; replicate 16): 0.3999 | Surface SNAP-GIPR expression ([1]; replicate 17): 0.3288 | Surface SNAP-GIPR expression ([1]; replicate 18): 0.3912 | Surface SNAP-GIPR expression ([1]; replicate 19): 0.3034 | Surface SNAP-GIPR expression ([1]; replicate 20): 0.3764 | Surface SNAP-GIPR expression ([1]; replicate 21): 0.4615 | Surface SNAP-GIPR expression ([1]; replicate 22): 0.364 | Surface SNAP-GIPR expression ([1]; replicate 23): 0.3963 | Surface SNAP-GIPR expression ([1]; replicate 24): 0.3543 | Surface SNAP-GIPR expression ([1]; replicate 25): 0.4738 | Surface SNAP-GIPR expression ([1]; replicate 26): 0.4835 | Surface SNAP-GIPR expression ([1]; replicate 27): 0.4338 | Surface SNAP-GIPR expression ([1]; replicate 28): 0.5117 | Surface SNAP-GIPR expression ([1]; replicate 29): 0.4222 | Surface SNAP-GIPR expression ([1]; replicate 30): 0.4733 | Surface SNAP-GIPR expression ([1]; replicate 31): 0.4841 | Surface SNAP-GIPR expression ([1]; replicate 32): 0.4011 | Surface SNAP-GIPR expression ([1]; replicate 33): 0.4465 | Surface SNAP-GIPR expression ([1]; replicate 34): 0.4033 | Surface SNAP-GIPR expression ([1]; replicate 35): 0.2194 | Surface SNAP-GIPR expression ([1]; replicate 36): 0.2502 | Surface SNAP-GIPR expression ([1]; replicate 37): 0.3794 | Surface SNAP-GIPR expression ([1]; replicate 38): 0.4678 | Surface SNAP-GIPR expression ([1]; replicate 39): 0.4904 | Surface SNAP-GIPR expression ([1]; replicate 40): 0.4789 | Surface SNAP-GIPR expression ([1]; replicate 41): 0.5101 | Surface expression [2]: 0.4654 | AD293 100 pM HTRF ([3]; AD293, 100 pM): 0.09215 | AD293 100 nM HTRF ([3]; AD293, 100 nM): 1.142 | INS-1 cAMP (100 nM) [4]: 1.196 | AD293 100 pM cADDis ([5]; AD293, 100 pM): 17.6282 | AD293 100 nM cADDis ([5]; AD293, 100 nM): 34.7 | +GIP internalisation (100 nM) ([6]; Fig 4E, GIP 100 nM): 0.224 | GIP-specific internalisation (100 nM) ([6]; Fig 4E, GIP 100 nM): 0.04046 | Constitutive internalisation (100 nM) ([6]; Fig 4E): 0.1836 | Surface expression ([6]; Fig 4E): 0.4265 | Internalisation, +GIP ([6]; Fig S4C, AD293): 55.082 | Internalisation, GIP-only ([6]; Fig S4C, AD293): 10.4684 | Internalisation, Vehicle ([6]; Fig S4C, AD293): 44.6136 | +GIP internalisation (100 nM) ([7]; Fig 4G, GIP 100 nM): 0.2239 | GIP-specific internalisation (100 nM) ([7]; Fig 4G, GIP 100 nM): 0.03772 | Constitutive internalisation (100 nM) ([7]; Fig 4G): 0.1862 | Internalisation, +GIP ([7]; Fig S4C, INS-1): 51.715 | Internalisation, GIP-only ([7]; Fig S4C, INS-1): 8.862 | Internalisation, Vehicle ([7]; Fig S4C, INS-1): 42.8533
